Results published in PMC4629677.

Target: microtubule (sea-urchin sperm axonemes) (sea urchin (sperm axonemes))
Assay: single-molecule fluorescence imaging

| Substance | duration time on MT (short stop mode) [s] | duration time on MT (diffusive mode) [s] |
| --- | --- | --- |
| 2T-K490CLM, two-tail stalk-truncated cysteine-light mutant kinesin (motility and ATPase experiments) (from UniProt P33176 1-490; P33176 904-963) | 1.47 | – |
| tail-GFP (kinesin tail 904-963 fused to EGFP) (from UniProt P33176 904-963) (domain or fragment) | – | 1.73 |
